Measurements taken from the supplement of paper PMC10567573.
± gives the standard deviation.

Test: protein stability index of a GFP-peptide fusion (GPS, HEK-293T) (PSI 1-6); higher = more stable
Settings: c terminus: a fixed tail appended
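Also: 24-mer peptide tiles fused after GFP, lentivirally expressed, FACS-sorted into six equal bins by GFP/DsRed ratio, decoded by Illumina sequencing, PSI is the read-weighted mean bin number.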

Question: With RTVNALEIELQAQHNLRDSLENTL [KRT34] as the sequence, how does the protein stability index (treatment: DMSO) read?
Answer: 3.41 ± 0.064

Question: What about the protein stability index (treatment: MLN4924 1 uM, 8 h) of the same sequence?
Answer: 3.64 ± 0.42

Question: Which protein stability index (treatment: DMSO) does the source give for RGRAREREQLQAEASERFAAGYIQ [HES6] here?
Answer: 4.58 ± 0.2

Question: What about the protein stability index (treatment: MLN4924 1 uM, 8 h) of the same sequence?
Answer: 4.57 ± 0.1

Question: Which protein stability index (treatment: DMSO) does the source give for RLNIKKDDEFFHFVLLCFAIGALL [TMEM40] here?
Answer: 2.73 ± 0.8

Question: What about the protein stability index (treatment: MLN4924 1 uM, 8 h) of the same sequence?
Answer: 2.19 ± 0.54

Question: Which protein stability index (treatment: DMSO) does the source give for ADLLEEEVIISWSEKASKKYVSKE [EIF5] here?
Answer: 3.98 ± 0.31

Question: And the protein stability index (treatment: MLN4924 1 uM, 8 h)?
Answer: 4.16 ± 0.41

Question: With MAEQSDEAVKYYTLEEIQKHNHSK [CYB5A] as the sequence, how does the protein stability index (treatment: DMSO) read?
Answer: 5.31 ± 0.24

Question: And the protein stability index (treatment: MLN4924 1 uM, 8 h)?
Answer: 5.28 ± 0.19

Question: With QDLKYISPEIMASVLNGKFANLIK [CDC25A] as the sequence, how does the protein stability index (treatment: DMSO) read?
Answer: 2.21 ± 0.22

Question: What about the protein stability index (treatment: MLN4924 1 uM, 8 h) of the same sequence?
Answer: 2.24 ± 0.17

Question: Which results are given for ARLLGALAARSGAAYGPGARGEDR [TSPAN10]?
Answer: protein stability index (treatment: DMSO): 3.89 ± 0.73; protein stability index (treatment: MLN4924 1 uM, 8 h): 3.91 ± 0.18

Question: Which protein stability index (treatment: DMSO) does the source give for SVTGHTNIVEYLIQEQPGQEQVAG [FEM1A] here?
Answer: 4.45 ± 0.073

Question: What about the protein stability index (treatment: MLN4924 1 uM, 8 h) of the same sequence?
Answer: 4.57 ± 0.17

Question: With LDVTVQSFGWSDRAKVKTDDIARI [FAM98B] as the sequence, how does the protein stability index (treatment: DMSO) read?
Answer: 2.98 ± 0.28

Question: What about the protein stability index (treatment: MLN4924 1 uM, 8 h) of the same sequence?
Answer: 2.89 ± 0.36

Question: Which protein stability index (treatment: DMSO) does the source give for QRPVSRQVTCLRTQVLEDSEDSFC [TRAF3IP2] here?
Answer: 4.68 ± 0.19

Question: What about the protein stability index (treatment: MLN4924 1 uM, 8 h) of the same sequence?
Answer: 4.53 ± 0.14

Question: With GRTCITDLQLTVGGAQASGTLIGV [MFSD9] as the sequence, how does the protein stability index (treatment: DMSO) read?
Answer: 2.33 ± 0.31

Question: What about the protein stability index (treatment: MLN4924 1 uM, 8 h) of the same sequence?
Answer: 2.04 ± 0.3

Question: With RLLMSQADKMTAEEVDQMFQFASI [MYL5] as the sequence, how does the protein stability index (treatment: DMSO) read?
Answer: 3.06 ± 0.26

Question: And the protein stability index (treatment: MLN4924 1 uM, 8 h)?
Answer: 3.1 ± 0.37

Question: Which protein stability index (treatment: DMSO) does the source give for NPYTELLVLKAHHDIVRFLVQLDD [WDR41] here?
Answer: 2.84 ± 0.39

Question: What about the protein stability index (treatment: MLN4924 1 uM, 8 h) of the same sequence?
Answer: 2.65 ± 0.35

Question: What does the source list for FFKGGGSSKSRAAPSPQEALVRLR [CHMP4C]?
Answer: protein stability index (treatment: DMSO): 3.26 ± 0.053; protein stability index (treatment: MLN4924 1 uM, 8 h): 3.33 ± 0.052
